From patent publication US20240042020A1

Target: human GARP-TGF-β1 complex (human) (UniProt Q14392)

Substance: livmoniplimab (antibody)
- minimal concentration that maximally inhibits TGF-β1 release and signaling (reporter assay): 0.8 µg/mL
